Source: patent publication US20150266963A1 (ARGEN X B V, published 2015)
Changes are numbered by the printed parent chain. Like-named read-outs stand apart in the source and are kept apart here. Blank lines part the entries; values can stand above or below the binder they belong to.

Tests used:
[1] = biological target: T1, human CD70 expressed on the surface of cells (human, UniProt P32970 1-193); test: cell-based or functional assay
T1 sequence (looked up): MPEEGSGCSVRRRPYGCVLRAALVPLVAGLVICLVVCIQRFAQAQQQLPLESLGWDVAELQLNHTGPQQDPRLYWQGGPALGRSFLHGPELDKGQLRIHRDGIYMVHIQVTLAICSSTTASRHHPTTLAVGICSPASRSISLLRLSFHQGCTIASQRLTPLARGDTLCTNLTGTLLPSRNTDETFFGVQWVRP

[2] = biological target: T2, heat denatured recombinant CD70 (human, UniProt P32970 52-193, limits assumed); test: ELISA on coated heat denatured recombinant CD70, anti-human IgG-HRP
T2 construct: Same recombinant CD70 as m1, denatured by heating for 5 minutes at 95 C and cooling on ice, coated directly on the plate; also called denatured CD70; not shown: Flag tag (anti-Flag mAb was the coating control) and further fusion parts
T2 sequence (looked up): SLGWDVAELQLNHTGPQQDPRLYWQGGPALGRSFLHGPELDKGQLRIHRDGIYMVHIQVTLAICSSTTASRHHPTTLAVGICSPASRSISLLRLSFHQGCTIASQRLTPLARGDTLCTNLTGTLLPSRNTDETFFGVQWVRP
Experimental: The binding of CD70 mAbs to denatured recombinant CD70 was assessed by ELISA. Recombinant CD70 was denatured by heating for 5 minutes at 95° C., followed by immediate cooling on ice for 5 minutes. A microtiter plate was coated with 5 μg/ml CD70 with or without denaturation. The plate was blocked and the CD70 mAbs for testing were applied at 10 μg/ml. After washing, binding of the mAbs was detected using anti-human IgG-HRP. As a positive control for the coating, instead of using the CD70 mAbs, an anti-Flag mouse-derived mAb was applied and detection was with anti-mouse-HRP. TMB was used as a substrate and OD at 620 nm was measured. […] Amongst the other mAbs, some are also binding to denatured CD70 (fe 5F4, 9G2, 57B6).

[3] = biological target: T3, recombinant human CD70 (Flag-TNC-CD70) (human, UniProt P32970 39-193); test: inhibition ELISA; Flag-TNC-CD70 captured by anti-Flag mAb; competitor CD27-Fc
T3 construct: extracellular domain; Captured by anti-Flag mAb in ELISA; as 'recombinant human CD70' immobilised on Biacore CM5 chips; TNC is for trimerisation; also called recombinant CD70; human recombinant CD70; not shown: Flag tag and TNC trimerisation domain
T3 sequence (looked up): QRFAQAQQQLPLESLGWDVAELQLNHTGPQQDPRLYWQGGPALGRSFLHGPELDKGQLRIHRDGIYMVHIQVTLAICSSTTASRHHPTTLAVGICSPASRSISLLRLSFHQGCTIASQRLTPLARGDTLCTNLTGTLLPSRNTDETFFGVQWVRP
Experimental: (§1) From selected phage transfected into TG1, individual colonies were picked randomly for growth in 96 well plates. After IPTG induction according to standard protocols periplasmic fractions (penis) containing Fabs were prepared. […] In this assay, Flag-TNC-CD70 is captured by an anti-Flag mAb and binding of CD27-Fc is detected via a biotinylated anti-CD27 mAb and strep-HRP in the absence or presence of CD70 Fabs (FIGS. 2 and 3) or CD70 mAbs (FIG. 4). In FIG. 2B it can be seen that 27B3, which has an identical VH as 9D1, but contains a somewhat different light chain, seems to block binding of CD27 to CD70 more efficiently, which was in line with the better off rate of this Fab as measured on Biacore (data not shown). Table 3 indicates the blocking potency (expressed as IC50) for the various llama-human chimeric mAbs tested in the CD70 inhibition ELISA. […] FIG. 3 is a composite of an experiment testing llama CD70 Fabs for blocking activity (in the inhibition ELISA, see white bars) and for CD70 binding (binding ELISA, black bars). For the binding ELISA, Flag-TNC-CD70 is captured by an anti-Flag mAb and binding of the Fabs is detected using an anti-myc-HRP mAb, which recognizes the MYC tag fused to the C-terminus of the Fd fragment. For comparison purposes, known monoclonal antibodies to CD70 (SGN70 described in US 2010/0129362 A1, clone 1F6; and MDX69A7 described in WO2008/074004 FIGS. 5A and 5B) were tested in parallel. […] Of interest is clone 59D10, which as Fab has no blocking activity, but when converted into a chimeric IgG was antagonistic (see Table 3). Amino acid sequences of the VH and VL domains of binding and blocking llama-derived Fab clones are shown elsewhere herein (Tables 6-9).

[4] = biological target: T1, human CD70 expressed on the surface of …; test: flow cytometry on 786-O cells, anti-human Fc-FITC
Experimental: Fluorescence of 10,000 cells/condition was measured using a flow cytometer and the median fluorescence was plotted.

[5] = biological target: T3, recombinant human CD70 (Flag-TNC-CD70); test: inhibition ELISA; Flag-TNC-CD70 captured by anti-Flag mAb; competitor CD27-Fc; remark: listed apart in the source
Experimental: as §1

[6] = biological target: T3, recombinant human CD70 (Flag-TNC-CD70); test: Biacore; recombinant human CD70 on CM5 chip; Fab injected
Summary of the method: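 Recombinant human CD70 amine-coupled to CM5 chip (~1000 RU). Trypsin-derived Fabs diluted 6-fold in HEPES-buffered saline with P20 injected at 30 μl/min; dissociation followed 10 minutes, surfaces regenerated with 10 mM NaOH; off-rates fitted after blank subtraction. CD27 off-rate from CD70 measured likewise.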

[7] = biological target: T3, recombinant human CD70 (Flag-TNC-CD70); test: Biacore; CD70 coated CM5 chip; Fab in periplasmic fraction
Experimental: Phage eluted from rounds 3, 4 and 5 of selection were transfected into TG1 and plated clonally; individual clones were picked randomly for further analysis. Periplasmic fractions containing Fabs were prepared from IPTG induced small scale cultures the off rate of each Fab was determined using a CD70 coated CM5 chip in a Biacore binding assay. Clones with Fab having off rates similar to that of 27B3 were sequenced.

[8] = biological target: T1, human CD70 expressed on the surface of …; test: cell-based or functional assay; remark: listed apart in the source
[9] = biological target: T4, recombinant human CD27 Fc chimera (CD27-Fc) (human, UniProt P26842 21-192); test: ELISA; captured Flag-TNC-CD70
T4 construct: Bought reagent; also called recombinant CD27-Fc; Fc part of the bought chimera not given
T4 sequence (looked up): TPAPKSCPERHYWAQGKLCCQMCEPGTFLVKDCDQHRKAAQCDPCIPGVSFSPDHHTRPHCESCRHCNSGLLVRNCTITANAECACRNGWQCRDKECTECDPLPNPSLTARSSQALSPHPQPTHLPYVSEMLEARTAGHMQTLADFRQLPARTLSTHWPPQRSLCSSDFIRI

- IC50 (ng/ml), IL-8 secretion in Raji / HT1080-CD27 co-culture assay [1]: 16 ng/mL
- binding result [2]: no binding (tested: 10 µg/ml (text))
- IC50 [3]: 0.075 µg/mL
B1: 19G10 chimeric llama-human mAb (antibody, human IgG1, V domains shown)
VH: EVQLQESGGGVVQPGGSLRLSCAASGFTFDDYAMSWVRQAPGKGLEWVSSIYMYDSSTYYADSVKGRFTISTDNAKNTVYLQMNSLKSEDTAVYYCAKDINRSYGSSWSHFGPIFSSWGQGTQVTVSS
VL: NFMLTQPSAVSVSLGQTARITCQGGYYTHWYQQKPGQAPVLVIYVNNNRPSGIPERFSGSSSGNTATLTISGAQAEDEAAYYCQSGSSSTIPVFGGGTKLTVLG

- IC50 (ng/ml), IL-8 secretion in Raji / HT1080-CD27 co-culture assay [1]: 517 ng/mL
- binding result [2]: no binding (tested: 10 µg/ml (text))
- IC50 [3]: 1.4 µg/mL
B2: 9E1 chimeric llama-human mAb (antibody, human IgG1, V domains shown)
VH: B1 VH
VL: QAVVTQEPSLSVSPGGTVTLTCGLTSGSVTSSNYPDWYQQTPGQAPRLLIYNTNSRHSGVPSRFSGSISGNKAALTITGAQPEDEADYYCNLYMGSGGSKVFGGGTKLTVLG

- IC50 (ng/ml), IL-8 secretion in Raji / HT1080-CD27 co-culture assay [1]: 32 ng/mL
- EC50 (read off the curve) [4]: ~0.2 µg/mL
- IC50 [3]: 0.296 µg/mL
B3: 5F4 chimeric llama-human mAb (antibody, human IgG1, V domains shown)
VH: EVQVQESGGGLVHPGGSLKLSCAASGFTFDTYAMSWVRQAPGKGLEWVSAISWSGGETFYAESMKGRFTISRNNAKNTLYLQMNSLKSEDTAVYYCARGMGLAEGLTDWGQGTQVTVSS
VL: QAVVTHPPSLSASPGSSVRLTCTLISGDNIGGYDISWYQQKTGSPPRYLLYYYSDSYKHQSSGVPSRFSGSKDASANAGLLLISGLQSEDEADYYCSAYKSGSYKAPVFGGGTHLTVLG

- IC50 (ng/ml), IL-8 secretion in Raji / HT1080-CD27 co-culture assay [1]: 29 ng/mL
- EC50 (read off the curve) [4]: ~0.03 µg/mL
- IC50 [5]: 0.73 nM
- IC50 [3]: 0.109 µg/mL
B4: 9D1 chimeric llama-human mAb (antibody, human IgG1, V domains shown)
VH: EVQLVESGGGLVQPGGSLRLSCAASGFTFSVYYMNWVRQAPGKGLEWVSDINNEGGTTYYADSVKGRFTISRDNAKNTLTLQMNSLKPEDTALYYCVRDAGYSNHVPIFDSWGQGTQVIVAS
VL: QAVVTQEPSLSVSPGGTVTLTCGLSSGSVTSSHYPGWYQQTPGQAPRLLIFNTNSRHSGVPSRFSGSISGNKAALTITGAQPEDEADYYCALLNIDDGSTMFGGGTHLTVLG
notes: also called mAb 9D1

- koff [6]: 8e-05 s⁻¹
- koff [7]: 0.00014 s⁻¹
- IC50 [5]: ~0.4 nM
B5: 27B3 Fab (Fab, V domains shown)
VH: B4 VH
VL: QAVVTQEPSLTVSPGGTVTLTCGLKSGSVTSTNFPTWYQQTPGQAPRLLIYNTNTRHSGVPSRFSGSISENKAALTITGAQPEDEAEYFCALFISNPSVEFGGGTQLTVLS
notes: Llama-derived Fab; also called Fab 27B3

- Raji co-culture assay IC50 relative to 27B3 [8]: 1.2 fold of 27B3
B6: 41D12 mAb (full-length human IgG1, HEK293) (antibody, V domains shown)
VH: B4 VH with A75S, T78S, T80Y, K87R, P88A, L93V, V97A, Q117L, I119T, A121S
VL: B5 VL with T32D, S62D, S69L, E70G, P82A, E83D, S111G

- Raji co-culture assay IC50 relative to 27B3 [8]: 1.6 fold of 27B3
B7: 53H1 mAb (full-length human IgG1, HEK293) (antibody, V domains shown)
VH: B4 VH with A75S, T78S, T80Y, K87R, P88A, L93V, V97A, Q117L, I119T, A121S
VL: B5 VL with A2T, L10F, T11S, T32D, S62D, S69L, E70G, P82A, E83D, S111G

- Raji co-culture assay IC50 relative to 27B3 [8]: 0.8 fold of 27B3
B8: 53A2 mAb (full-length human IgG1, HEK293) (antibody, V domains shown)
VH: B4 VH with A75S, T78S, T80Y, K87R, P88A, L93V, V97A, Q117L, I119T, A121S
VL: B5 VL with L10F, T11S, T32D, S62D, S69L, E70G, P82A, E83D, S111G

- Raji co-culture assay IC50 relative to 27B3 [8]: 1.4 fold of 27B3
B9: 35G2 mAb (full-length human IgG1, HEK293) (antibody, V domains shown)
VH: B4 VH with T80Y, L93V, V97A, Q117L, I119T, A121S
VL: QTVVTQEPSFSVSPGGTVTLTCGLKSGSVTSTNFPTWYQQTPGQAPRLLIYNTNSRHSGVPDRFSGSILGNKAALTITGAQADDEADYFCALFISNPSVEFGGGTQLTVLG

- Raji co-culture assay IC50 relative to 27B3 [8]: 1.8 fold of 27B3
B10: 40F1 mAb (full-length human IgG1, HEK293) (antibody, V domains shown)
VH: B4 VH with T57A, A75S, T78S, T80Y, K87R, P88A, L93V, V97A, I119T, A121S
VL: B9 VL with T2A, T32D, S55T, D87E

- binding result [9]: binds
B11: human-mouse CD70 chimera chim-4 (Flag-TNC-CD70) (ligand, not shown: small tags and cut ends)
chain: HPEPHTAELQLNLTVPRKDPTLRWGAGPALGRSFTHGPELEEGHLRIHQDGLYRLHIQVTLANCSSPGSTLQHRATLAVGICSPAAHGISLLRGRFGQDCTVALQRLTYLVHGDVLCTNLTGTLLPSRNTDETFFGVQWVRP
notes: also called chimera 4

- binding result [2]: no binding (tested: 10 µg/ml (text))
B12: 6D5 (antibody, V domains shown)
VH: EVQLVQPGAELRKPGASVKVSCKASGYTFTSYYIDWVRQAPGQGLEWMGRIDPEDGGTKYAQKFQGRVTFTADASTSTAYVELSSLRSEDTAVYYCASRRRDFDYWGQGTQVTVSS
VL: QSALTQPSAVSVSLGQTARITCQGGNARFSSFAWYQQKPGQAPVQVIYYNTNRPSGIPARFSGSSSGGAATLTISGAQAEDEADYYCQSYESGNYVFGGGTTLTVLG
notes: the mAb format of 6D5 is not described in the text; also called 6D5 mAb

- IC50 (ng/ml), IL-8 secretion in Raji / HT1080-CD27 co-culture assay [1]: 54 ng/mL
- EC50 (read off the curve) [4]: ~0.06 µg/mL
- IC50 [3]: 0.254 µg/mL
B13: 4D2 chimeric llama-human mAb (antibody, human IgG1, V domains shown)
VH: QVQLQESGPGLVKPSQTLSLACTVSGGSITTSYYYWSWIRQPPGKGLEWMGAIGSRGSTYYSPSLKTRTSISRDTSKNQFTLQLSSVTPEDTAVYYCARVTGEITYNSGSYYYTLNLFDYWGQGTQVTVSS
VL: QSVLTQPPSLSASPGSSVRLTCTLSSGNSVGNYDISWYQQKAGSPPRYLLYYYSDSYKNQGSGVPSRFSGSKDPSANAGLLLISGLQAEDEADYYCSVSNSGTYKPVFGGGSKLTVLG
